Columns and labels:
[1] = biological target: anti-S1 fragment of SARS-CoV-2's spike protein antibody; experiment: lateral flow dipstick; capture antibody trapped in 5% acrylamide hydrogel; S1-coated gold nanoparticles as reporter (FIG. 3, panel b)
[2] = biological target: anti-S1 fragment of SARS-CoV-2's spike protein antibody; experiment: lateral flow dipstick; separate experiment with improved hydrogel and streptavidin; S1-coated gold nanoparticles as reporter (FIG. 3, panel d)
[3] = biological target: anti-S1 fragment of SARS-CoV-2's spike protein antibody; experiment: lateral flow dipstick; capture antibody immobilized by physical adsorption; S1-coated gold nanoparticles as reporter (FIG. 3, panel a)
[4] = biological target: anti-S1 fragment of SARS-CoV-2's spike protein antibody; experiment: lateral flow dipstick; capture antibody held by streptavidin trapped in the hydrogel; S1-coated gold nanoparticles as reporter (FIG. 3, panel c)

limit of detection [1]: 1 ng
limit of detection [2]: 0.05 ng
limit of detection [3]: 10 ng
limit of detection [4]: 0.1 ng
Substance: biotin-SP-conjugated anti-human IgG Fc (antibody)

— patent US20230288413A1
